These results are taken from US5422095A, “Low molecular weight polysaccharide complexes for radiation diagnosis” (Nihon Medi-Physics Co., Ltd., priority 1991, dated 1995).

The conditions of data set [1]: in vivo; cited from earlier work.
For data set [2] the following is noted: DTPA-Gd lower than Gd itself; cited from earlier work.
A short description of data set [3]: Relaxivity of GPEN-DTES-Gd and GTRI-DTES-Gd, proton relaxation time by 6.35T NMR (in vitro test, Test 1). The format is physicochemical. To be noted: for R1 (relaxivity on T1): 24° to 26° C., calculated from relaxation times. As to the method:
Relaxivity of GPEN-DTES-Gd and GTRI-DTES-Gd (in vitro test)
An appropriate amount of GPEN-DTES-Gd and GTRI-DTES-Gd were dissolved in distilled water. The relation to water proton exposed to these compounds was determined as a proton relaxation time (T1 and T2, msec) at room temperature (24° to 26° C.) using NMR (6.35T, manufactured by Nihondenshi K. K., Japan).
GPEN-DTES-Gd (2.3 mM) shortened remarkably the T1 value of water about 60 times and the T2 value of water 85 times. And GTRI-DTES-Gd (2.9 mM) shortened remarkably the T1 value of water about 70 times and the T2 value about 85 times. The relaxivity on T1 and T2 [each R1 and R2, (mM.S)^-1 ] were calculated based on the values in Tables 1 and 2.

The subject of data set [4] is blood. In words: Relaxation time of GPEN-DTES-Gd in blood in mouse after intravenous administration (ex vivo test, Test 2). Set-up: species or system ICR female mouse. To be noted: 0.025 mmol/kg in terms of Gd, 15 minutes after administration. As to the method: Relaxation time of GPEN-DTES-Gd in blood in mouse after intravenous administration (ex vivo test)
GPEN-DTES-Gd (Gd concentration: 75 mM) (0.025 mmol/kg in terms of Gd) was administered to a thiopental anesthetized ICR female mouse (body weight: 44 g) through the tail vein. At 15 minutes after administration, the blood was taken from the aorta descendence, and the relaxation time (T1, msec) of the blood at room temperature (24° to 26° C.) was determined with a 6.35T NMR apparatus (manufactured by Nihondenshi K. K., Japan).
As a control, blood was taken from the aorta descendence of a thiopental anesthetized ICR female mouse (body weight: 55 g) and, according to the same manner, the relaxation time was determined.

Data set [5] deals with heart. In words: Contrast enhancement of the heart in rat at 1 hour after intravenous administration, MRI (in vivo test, Test 3). Set-up: species or system Sprague-Dawley female rat. As to conditions: 1 hour after i.v. administration, 0.094 mmol/kg Gd vs 0.1 mmol/kg DTPA-Gd, 1.5T, T1 weighted spin echo. As to the method: Contrast enhancement of the heart in rat at 1 hour after intravenously administration of GPEN-DTES-Gd (in vivo test)
A solution of GPEN-DTES-Gd (Gd concentration: 75.1 mM) (0.094 mmol/kg in terms of Gd) was administered to a thiopental anesthetized Sprague-Dawley female rat (214 g, 9-weeks old) through a cannula fixed to femoral vein. At 1 hour after administration, the animal was sacrificed by administration of pentobarbital solution (1 ml) through the above cannula, fixed at prone position in the magnetic field of a MRI spectrometer. MRI measurement (transverse sectional view) of the chest region including the heart was carried out.
As a control, DTPA-Gd (MAGNEVIST®) was administered to a Sprague-Dawleyfemale rat (body weight: 204 g, 9-weeks old) through a cannula fixed at femoral vein (0.1 mmol/kg) and the measurement (transverse sectional view) of the chest region including the heart was carried out as described above.
The apparatus was SIGMA (manufactured by GE, U.S.A.) with magnetic field intensity of 1.5T and, as an imaging coil, a 26 cm .phi.bird-cage type head QD coil was used. Imaging was carried out according to spin echo method of T1 weighted (TR/TE, 600/30 msec) under the condition of 10 mm in slice thickness, a resolution of 256×128.

[6] abbreviates: 2.3 mM in distilled water, 6.35T, room temperature (24° to 26° C.).

In the case of `O=C([O-])CN(CCN(CC(=O)[O-])CC(=O)O)CCN(CC(=O)[O-])CC(=O)O.[Gd+3]` [DTPA-Gd, (Diethylenetriaminepentaacetic acid)gadolinate], the “excretion into the urine (in words)” value in data set [1] is “rapidly excreted into the urine after administration”. In addition, the “relaxivity relative to Gd itself” value in data set [2] was “about 1/2”. The “R1 (relaxivity on T1)” value in data set [3] (water, 6.35T) is given as 3.9 (mM · S)^-1.
As for “(galactosamino-pentamer)-[1-(p-isothiocyanatebenzyl)-diethylenetriaminepentaacetic acid]gadolinate [GPEN-DTES-Gd]”, in data set [3] (2.3 mM), the “Shortening of the T1 value of water” value is “about 60 times” and the “Shortening of the T2 value of water” value was found to be 85 times. Also, in data set [3] (setting [6]), the T1 relaxation time amounted to 55 ms and the T2 relaxation time stood at 26 ms. In addition, the “in vitro relaxation effect” value in data set [3] (in words, compared with DTPA-Gd) is “predominantly higher than that of DTPA-Gd”. The “T1 relaxivity in water” value in data set [3] (magnetic field intensity 6.35T, 25° C.) is recorded as 7.6 (mM.S)^-1. For the same compound, in data set [3] (water, 6.35T), the “R1 (relaxivity on T1)” value is 7.6 (mM · S)^-1. The “T1 relaxivity relative to DTPA-Gd” value in data set [3] (water, 6.35T, 25° C.) is on record as “about two”. In data set [4], the “T1 relaxation time effect in blood compared with control mouse” value is “about 2.3 times”. The compound also yielded a T1 in blood in data set [4] (tail vein, 6.35T, 24° to 26° C.) of 769 ms. Moreover, the “MRI signal intensity / contrast effect in the heart relative to DTPA-Gd (MAGNEVIST®)” value in data set [5] is “about 1.8 times”.
